Measured values reported in the supplement of paper PMC9732359.
± gives the uncertainty stated by the source.

Experiment: protein stability index of a GFP-peptide fusion (yeast GPS) (PSI 1-4); higher = more stable; sorted into four equal gates, so the index is relative within each strain
Conditions: pdr5∆
Procedure, shortened: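 The protein stability index combines read frequencies across sorting gates, each weighted by its gate number and then summed. To obtain those frequencies, a pooled yeast library of GFP fusions to tiled 17-residue yeast protein peptides, on a plasmid also expressing Cherry, was grown to mid-log phase in leucine-free medium. The cells were sorted into four equal gates by GFP/Cherry ratio before plasmid amplification by PCR and Illumina sequencing.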

First: VDESLLSTLPAGKSLVS [QCR2]
Second: VDFIKHSLSQAIKWDGS [PRE3]
The protein stability index of the first is higher: 2.81 ± 0.22 for the first, 2.29 ± 0.12 for the second.

First: VDIRVGKKSSSSTKDYL [RET1]
Second: VDKGAIMKNKDFILSLL [YJL039C/NUP192]
The protein stability index of the first is higher: 3.37 ± 0.12 for the first, 1.81 ± 0.096 for the second.

Going from VDKSRKVAHTSYKRIYG [PRE8] to VDNTVPSTTLFNFGGKS [YOR098C/NUP1], the protein stability index falls from 3.13 ± 0.13 to 2.07 ± 0.049.

First: VDPFTRKEWFDIKAPST [RPS1A]
Second: VDSGEERNEQEREIMND [SWI3]
The protein stability index of the first is lower: 2.57 ± 0.067 for the first, 3.26 ± 0.064 for the second.

Compared with VDSTFQKVSENFEAVFE [SMC3], VDVAIPCNNRGKHSIGL [RPS0A] is lower in protein stability index: 3.38 ± 0.081 for the first, 2.91 ± 0.1 for the second.

First: VEDFLERRLQTQVYKLG [RPS9A]
Second: VEDYLSSVTSDSMKYTI [RPC82]
The protein stability index of the first is lower: 1.45 ± 0.095 for the first, 3.03 ± 0.083 for the second.

Compared with VEEIKLQKEKELHKEGT [SMC2], VEELMKKRRGSRIYKTI [SNU114] is lower in protein stability index: 3.03 ± 0.12 for the first, 1.75 ± 0.053 for the second.

Going from VEENRVRYTTSVMPPNE [DLS1] to VEFCGYSIPHPSENLLN [RPC19], the protein stability index rises from 2.79 ± 0.051 to 3.05 ± 0.062.

VEFCRNINSTDKSIDTS [YML103C/NUP188] and VEIVNYNVENQQYVAAG [FAS1] are within error of each other in protein stability index: 2.93 ± 0.091 for the first, 2.67 ± 0.18 for the second.

VEKTLLSDVAFYVQDVY [RPO31] and VEKVATAVLSTTARAKA [RPN2] are within error of each other in protein stability index: 3.14 ± 0.23 for the first, 3.32 ± 0.086 for the second.

Going from VEQYKFRETTHSKRELD [BRR2] to VETILSGKARICIVGGY [FAS2], the protein stability index falls from 2.96 ± 0.059 to 1.32 ± 0.17.

Compared with VEVLLVNYNSDMIKCFL [NUT1], VFDLCWNSLMYALQSVK [RRP43] is higher in protein stability index: 1.74 ± 0.077 for the first, 2.02 ± 0.067 for the second.

Compared with VFDTAITSWYENHNKGK [QCR9], VFIFPTSNWEIYKPLLF [SRB8] is lower in protein stability index: 2.96 ± 0.12 for the first, 2.6 ± 0.083 for the second.

VFIRHRTPHEIQEANSV [RIP1] and VFNNGIVVLVPKFGVEG [DIS3] are the same in protein stability index: 2.24 ± 0.28 for the first, 2.24 ± 0.072 for the second.

Going from VFQDNVYKIYNHVMPLK [SIN4] to VGKVMNKNQETAISVAK [RPT6], the protein stability index rises from 1.69 ± 0.096 to 3.55 ± 0.21.

Compared with VGQLNKVVDQLFEKASV [RPN6], VGRLASVVAKQLLNGQK [RPL16A] is lower in protein stability index: 2.51 ± 0.15 for the first, 1.89 ± 0.3 for the second.

Compared with VGSLVVKSSMGPAFRLY [RPL1A], VGVHIADVTHFVKPGTA [DIS3] is lower in protein stability index: 2.95 ± 0.055 for the first, 2.14 ± 0.058 for the second.

Compared with VGVIGPLHSGKTSLMDL [SNU114], VGVSHTNEEVRNMAEEF [CYT1] is lower in protein stability index: 2.68 ± 0.11 for the first, 2.35 ± 0.07 for the second.

VHPGANYLLKRNEDARR [RPO31] and VHRITDEEASYKLGKVK [RPS4A] are within error of each other in protein stability index: 3.14 ± 0.077 for the first, 3.13 ± 0.13 for the second.

VIANPKGEMKGSAITGP [RPL23A] and VIEMKRCFENLQNKSFK [UBP6] are within error of each other in protein stability index: 3.22 ± 0.2 for the first, 3.28 ± 0.2 for the second.

Going from VIGLDSEHDKKRLSAAL [YML103C/NUP188] to VIKTLTVDVSSPTENGV [RPL22B], the protein stability index falls from 3.69 ± 0.19 to 2.55 ± 0.089.

First: VILGDANSSTIRVTNSF [RPN8]
Second: VILQSDLEEAYATQVKT [RPT3]
The protein stability index of the first is higher: 2.94 ± 0.072 for the first, 2.57 ± 0.069 for the second.

Going from VINIAKAHPNFPIALQW [FAS1] to VIQQDKYQKALHYLKKF [SRP72], the protein stability index falls from 2.88 ± 0.086 to 1.26 ± 0.079.

VITLAEYEKRNHGGSLG [SRP68] and VITNLFSAIPFVGNDIV [COB] are within error of each other in protein stability index: 3.06 ± 0.13 for the first, 3.12 ± 0.053 for the second.

Compared with VIWSEDNDEKLIIRCRV [RPO21], VKAQRPITGASLDLIKE [RPL24A] is lower in protein stability index: 2.96 ± 0.19 for the first, 2.07 ± 0.049 for the second.

First: VKDFTSLGFNEVFSRPE [RPO21]
Second: VKDKEEDHIFFKYIYEL [YDL116W/NUP84]
The protein stability index of the first is higher: 2.56 ± 0.27 for the first, 1.09 ± 0.093 for the second.

Compared with VKEMEPKQSDEYLKRVS [SIR3], VKKQKSARGIETRPAQV [FAS2] is higher in protein stability index: 2.74 ± 0.057 for the first, 3 ± 0.094 for the second.

Compared with VKLKQQKVNAVDSTFQK [SMC3], VKLYGREGSSARTIKAT [RPB2] is higher in protein stability index: 2.9 ± 0.19 for the first, 3.36 ± 0.12 for the second.

Going from VKNVKNSDLEFNTFWDE [ARP9] to VKRIQSVPLVIGQFLEP [RPT3], the protein stability index falls from 3.13 ± 0.14 to 1.6 ± 0.063.

VKRLLFTIRGFKQKLNE [MTW1] and VKVNHNEKRYATASAIA [RPL4A] are within error of each other in protein stability index: 2.76 ± 0.048 for the first, 2.62 ± 0.11 for the second.

VLALKVEDFLERRLQTQ [RPS9A] and VLDIVPGSSITETEVER [SRB4] are within error of each other in protein stability index: 2.86 ± 0.092 for the first, 2.88 ± 0.15 for the second.

Compared with VLETHESGIKPYFEQKI [RPT6], VLFAAYKVEHPFFARFK [RPB11] is lower in protein stability index: 2.29 ± 0.28 for the first, 1.87 ± 0.05 for the second.

Compared with VLIFFQMTQIMDIMEDF [SNF2], VLKESIVNICDIQEEQV [PUP1] is higher in protein stability index: 1.52 ± 0.085 for the first, 3.04 ± 0.22 for the second.

VLLTFLQDELHKVSSQS [YCS4] and VLLVLPFTDRSVVRGNT [COB] are within error of each other in protein stability index: 3.45 ± 0.2 for the first, 3.31 ± 0.15 for the second.

VLQDLRLGSKKLVEIIW [YJL039C/NUP192] and VLQKVIEWAEHHRDSNF [SKP1] are within error of each other in protein stability index: 3.09 ± 0.16 for the first, 3.14 ± 0.063 for the second.

Going from VLRLNAIPLLKVLRKFR [NUT1] to VLRPFLLRRLKKDVEKE [SNF2], the protein stability index rises from 2.21 ± 0.054 to 3.16 ± 0.19.

VLRRLLAKYRDAGKIDK [RPL19A] and VLSTEEILNIFKHISVK [RPO21] are within error of each other in protein stability index: 3.37 ± 0.15 for the first, 3.44 ± 0.24 for the second.

Compared with VLVLRGTLEGHNGWVTS [ASC1], VLVSSVTEANIIKLVEG [RPS12] is higher in protein stability index: 2.1 ± 0.14 for the first, 2.58 ± 0.067 for the second.

First: VLYHTSGAITFVNETPR [PRP8]
Second: VMEYDVKFYEIFNFDQL [SRB8]
The protein stability index of the first is higher: 2.24 ± 0.075 for the first, 1.9 ± 0.12 for the second.

Compared with VMSSDDENAPVATNANA [PRE10], VNAIKNEVKEWAVTLDT [DSN1] is lower in protein stability index: 3.42 ± 0.11 for the first, 2.82 ± 0.13 for the second.

Going from VNDFSDITSDQLLQRLN [SMC3] to VNDKYKTCAEVIGGNSL [SMC3], the protein stability index rises from 2.24 ± 0.053 to 3.15 ± 0.16.

Going from VNEENDSYIALYEKDIV [RET1] to VNESRNSDDIIDVDMDA [SRB5], the protein stability index falls from 2.56 ± 0.076 to 2.2 ± 0.053.

First: VNGSTTAGVGSTPNFGG [SIN4]
Second: VNGVPLRRVNARYVIAT [RPL6A]
The protein stability index of the first is higher: 3.33 ± 0.095 for the first, 1.9 ± 0.066 for the second.

First: VNLDNTAVGKAAVVKTS [RPT5]
Second: VNLENPIPIAVLDSYTP [FAS1]
The protein stability index of the first is higher: 3.12 ± 0.057 for the first, 1.7 ± 0.036 for the second.

Compared with VNLSQEALQYDPQPFLK [SNU114], VNQDSTYKYFEVILVDP [RPL15A] is higher in protein stability index: 2.84 ± 0.061 for the first, 3.43 ± 0.082 for the second.

VPISTSQTNNSFLSGVK [SIR4] and VPKSIAKTLTYPEVVTP [RPO21] are within error of each other in protein stability index: 2.73 ± 0.07 for the first, 2.76 ± 0.044 for the second.

First: VPNILSLDMNSMNKELI [NUT1]
Second: VPVTKLGRLVKAGKITT [RPS2]
The protein stability index of the first is lower: 1.96 ± 0.084 for the first, 3 ± 0.15 for the second.

Going from VQARDNSQVFGVARIYA [RPS14B] to VQFGLNEETFTVPELEI [ARP9], the protein stability index rises from 2.3 ± 0.054 to 3.02 ± 0.096.

First: VQGELKPTVILKLLKEN [FAS1]
Second: VQIGAEIILDFLQDKVQ [CSI1]
The protein stability index of the first is lower: 2.53 ± 0.14 for the first, 3.07 ± 0.066 for the second.

With VQMAKILRKELSEEKEV [MCD1] the protein stability index was 3.17 ± 0.27.
